Results on ten molecules are retold here after patent US20140112930A1 (published 2014).

Test [1] concerns the target T1, human bow-Ang-2 tetrameric construct (hBA2) (human).
T1 construct: also called human BA2; hBA2-hIgG1
Description: SPR, captured Ab.

For test [2], the target named is T2, Dimeric Mouse Ang-2FD conjugated to human IgG1 (mouse (Mus musculus); human).
T2 construct: also called Mouse Ang-2FD-hFc
As to the kind of experiment: SPR, captured Ab, RT. As to the method:
(§1) Antibody was captured on a goat anti-mouse IgG polyclonal antibody surface, a goat anti-human κ polyclonal antibody (Southern Biotech, Birmingham, Ala.) surface or a goat anti-human IgG polyclonal antibody (Jackson Immuno Research Lab, West Grove, Pa.) surface created through direct amine coupling to a BIACORE™ CM5 sensor chip to form a captured antibody surface. […] Antigen-antibody binding and dissociation were monitored in real time at room temperature. Kinetic analysis was performed to calculate KD and half-life of antigen/antibody complex dissociation.
(In general: In SPR one partner is held on a chip, and binding of the other changes the refractive index at the surface.)

The target in test [3] is T3, Dimeric Human Ang-2FD conjugated to human IgG1 (human).
T3 construct: also called Human Ang-2FD-hFc; hAng-2FD-hFc
As to the kind of experiment: SPR, captured Ab, RT. As to the method: as §1

For test [4], the target named is T4, Dimeric Monkey Ang-2FD conjugated to human IgG1 (monkey (Macca fascicularis); human).
T4 construct: also called Monkey Ang-2FD-hFc
Description: SPR, captured Ab, RT. As to the method:
as §1

In test [5] the target is T5, wild-type human Ang-2 (hAng-2-WT) (human, UniProt O15123 19-496).
T5 construct: called full-length wild-type; also called Full-length wild-type human Ang-2
T5 sequence: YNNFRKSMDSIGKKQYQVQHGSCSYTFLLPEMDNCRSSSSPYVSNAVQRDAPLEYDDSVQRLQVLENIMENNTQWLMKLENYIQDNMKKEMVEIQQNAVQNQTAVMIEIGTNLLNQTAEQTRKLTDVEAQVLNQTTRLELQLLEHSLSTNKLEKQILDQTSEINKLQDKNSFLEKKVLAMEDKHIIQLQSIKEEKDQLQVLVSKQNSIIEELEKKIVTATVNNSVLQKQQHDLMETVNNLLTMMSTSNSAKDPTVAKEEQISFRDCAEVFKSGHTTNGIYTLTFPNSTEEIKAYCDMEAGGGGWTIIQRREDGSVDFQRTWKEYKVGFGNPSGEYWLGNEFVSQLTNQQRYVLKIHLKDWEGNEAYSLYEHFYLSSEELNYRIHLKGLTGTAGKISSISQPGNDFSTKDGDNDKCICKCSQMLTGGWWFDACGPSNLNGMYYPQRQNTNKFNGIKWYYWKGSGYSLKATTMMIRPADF
As to the kind of experiment: SPR, captured Ab.

Test [6] has as its target T6, Monomeric hAng-2FD (human, UniProt O15123 282-496).
T6 construct: also called fibrinogen-like domain of human Ang2; Human Ang-2FD
T6 sequence: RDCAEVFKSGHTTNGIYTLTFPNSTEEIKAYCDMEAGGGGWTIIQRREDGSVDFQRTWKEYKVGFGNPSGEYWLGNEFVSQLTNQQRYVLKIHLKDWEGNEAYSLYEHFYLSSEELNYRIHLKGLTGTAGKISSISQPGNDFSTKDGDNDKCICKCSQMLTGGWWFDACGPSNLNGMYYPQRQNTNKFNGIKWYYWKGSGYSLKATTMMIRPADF
As to the kind of experiment: SPR, captured Ab.

T2 sequence (chain, as listed by the source limits assumed): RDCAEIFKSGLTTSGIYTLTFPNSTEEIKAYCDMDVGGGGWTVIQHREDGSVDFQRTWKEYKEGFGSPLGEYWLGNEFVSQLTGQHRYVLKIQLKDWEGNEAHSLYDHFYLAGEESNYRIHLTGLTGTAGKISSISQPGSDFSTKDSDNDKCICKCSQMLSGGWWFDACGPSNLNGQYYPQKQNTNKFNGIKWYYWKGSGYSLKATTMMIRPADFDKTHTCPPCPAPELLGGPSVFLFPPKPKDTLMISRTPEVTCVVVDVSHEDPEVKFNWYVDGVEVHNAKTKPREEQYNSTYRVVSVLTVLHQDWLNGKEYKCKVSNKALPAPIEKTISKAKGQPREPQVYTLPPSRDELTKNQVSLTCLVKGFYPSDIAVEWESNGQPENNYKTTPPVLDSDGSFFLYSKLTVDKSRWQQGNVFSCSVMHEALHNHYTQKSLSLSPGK
T4 sequence (chain, as listed by the source limits assumed): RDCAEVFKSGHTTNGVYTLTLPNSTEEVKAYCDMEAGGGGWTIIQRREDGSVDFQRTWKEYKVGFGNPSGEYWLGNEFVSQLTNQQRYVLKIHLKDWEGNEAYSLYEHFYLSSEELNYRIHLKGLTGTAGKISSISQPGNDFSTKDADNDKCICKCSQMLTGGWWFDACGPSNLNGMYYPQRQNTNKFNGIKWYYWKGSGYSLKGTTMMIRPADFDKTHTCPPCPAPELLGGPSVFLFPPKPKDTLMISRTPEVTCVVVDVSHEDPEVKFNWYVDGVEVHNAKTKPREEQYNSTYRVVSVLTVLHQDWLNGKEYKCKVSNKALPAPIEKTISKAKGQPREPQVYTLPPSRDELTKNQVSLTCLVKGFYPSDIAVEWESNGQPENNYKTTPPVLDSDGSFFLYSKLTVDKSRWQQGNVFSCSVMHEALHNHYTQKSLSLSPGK
T1 sequence (chain, as listed by the source limits assumed): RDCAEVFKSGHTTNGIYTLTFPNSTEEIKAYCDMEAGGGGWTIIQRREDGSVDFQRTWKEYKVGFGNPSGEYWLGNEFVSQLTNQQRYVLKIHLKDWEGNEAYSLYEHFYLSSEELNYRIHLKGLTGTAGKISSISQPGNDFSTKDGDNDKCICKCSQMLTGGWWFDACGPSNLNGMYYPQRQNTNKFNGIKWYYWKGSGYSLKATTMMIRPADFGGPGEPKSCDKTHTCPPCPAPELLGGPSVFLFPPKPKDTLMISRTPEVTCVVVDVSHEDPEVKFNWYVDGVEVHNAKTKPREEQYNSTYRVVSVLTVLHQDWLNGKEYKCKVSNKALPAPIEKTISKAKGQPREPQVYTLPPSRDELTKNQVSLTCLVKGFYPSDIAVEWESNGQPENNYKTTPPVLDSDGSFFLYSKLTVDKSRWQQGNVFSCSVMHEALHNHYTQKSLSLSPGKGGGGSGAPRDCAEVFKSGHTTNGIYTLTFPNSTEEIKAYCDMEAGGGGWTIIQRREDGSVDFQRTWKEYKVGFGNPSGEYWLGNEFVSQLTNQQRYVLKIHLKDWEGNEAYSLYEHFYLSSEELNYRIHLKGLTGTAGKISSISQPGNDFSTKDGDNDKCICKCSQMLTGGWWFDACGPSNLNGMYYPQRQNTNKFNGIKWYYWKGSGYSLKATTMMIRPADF

B1: H1H704P (antibody, V domains shown)
VH: QVQLVESGGDVVQPGRSLRLSCAASGFTFSSYGMHWVRQAPGKGLEWVAIIWYDGSNKYYADSVKGRFTISRDNSKNTLYLQMNSLRVEDTAVYSCARDFSISSRHFDYWGQGTLVTVSS
VL: DIQMTQSPSSLSASVGDRVTITCRASQAINNYLAWFQQKPGKAPKSLIYATSNLQSGVPSQFSGSGSGTDYTLTISSLQPEDFATYYCQQYYIYPITFGQGTRLEIK
On to B1, for which the Kd in test [1] came to 0.0939 nM; in test [2], 0.484 nM; in test [3], 0.331 nM; in test [4] it was 0.818 nM; in test [5], 0.0362 nM; in test [6] it was 0.39 nM. In addition, the T1/2 worked out at 1.96 h in test [1]; 1.03 h in test [2]; 1.43 h in test [3]; 0.558 h in test [4]; 12.5 h in test [5]; 0.0552 h in test [6].

B2: H1H742N (antibody, V domains shown)
VH: DVQLLESGGDLVQPGGSLRLSCEASGFTFRNYVMIWVRQAPGKGLEWVSGISNSGGTTHYTDSVKGRFTISRDNSKNTLYLQINSLRAEDTAVYYCAKGYLDTSLIEGNWFDPWGQGTLVTVSS
VL: NIVMTQSPLSLPVTPGEPASISCRSSQSLLHSNGFNYLNWFLQKPGQSPQLLIYLGSNRASGVPDKFSGSGSGTDFTLNINRVEAEDVGIYFCMQTLQTPLTFGGGTKVEIK
As for B2, the Kd in test [1] is 0.0721 nM; in test [2], 0.276 nM; in test [3], 0.186 nM; in test [4] it was 0.683 nM; in test [5], 0.0449 nM; in test [6], 486 nM. The T1/2 in test [1] came to 1.45 h; in test [2], 0.967 h; in test [3], 1.08 h; in test [4] it was 1.55 h; in test [5], 11.1 h; in test [6], 0.0382 h.

B3: H1H691P (antibody, V domains shown)
VH: EVQLVESGGGLVQPGRSLRLSCAASGFTFDDYAMHWVRQAPGKGLEWVSGISWNSGDIGYADSVKGRFTISRDNAKNSLYLQMNSLRAQDTALYYCAKAYGDYYYFYGMDVWGQGTTVTVS
VL: EIVLTQSPGTLSLSPGERATLSCRASQSVSSSYLAWYQQKPGQAPRLLIFSASSRATGIPDRFSGSGSGTDFTLTISRLEPEDFAVYYCQQYDNSLTFGGGTKVEIK
In the case of B3, the Kd in test [2] worked out at 0.22 nM; in test [3], 0.22 nM; in test [4], 0.29 nM. The T1/2 is 0.73 h in test [2], 0.642 h in test [3] and 0.683 h in test [4].

B4: H1H728N (antibody, V domains shown)
VH: EVQLVESGGDLVQPGGSLRLSCTASGFTFSKYWMTWVRQAPGRGLEWVANIKEDGNEKYFLDSVKGRFTISRDNAKDLLFLQMNSLRGEDTAVYYCVRDRGIEVAGPFDYWGQGTLVTVSS
VL: DIQMTQSPSTLSASVGDRVTVTCRASQTIINWLAWYQQKPGKAPKLLISKASSLESGVPSRFSGSGSGTEFTLTISSLQPDDFATYYCQQYNRYWTFGQGTMVEIK
With B4, the Kd is 0.0418 nM in test [1]; 5.76 nM in test [2]; 0.162 nM in test [3]; 2 nM in test [4]; 0.043 nM in test [5]; 1.18 nM in test [6]. In addition, the T1/2 was 3.08 h in test [1]; 0.333 h in test [2]; 1.35 h in test [3]; 1.28 h in test [4]; 9.43 h in test [5]; 0.0977 h in test [6].

B5: H1H730N (antibody, V domains shown)
VH: EVQLVESGGGLVQPGGSLRLSCAASGFAFRSYWMTWVRQAPGKGLEWVANIQQDGNDKYYVDSVKGRFTISRDNAKNSLYLQMNSLRAEDTAVYYCARDTGIAEAGPFDYWGQGTLVTVSS
VL: DIQMTQSPSTLSASVGDRVSITCRASQTIISWLAWYQQKPGKAPRLLIYKASSLESGVPSRFSGSGSGTEFTLTINSLQPDDFATYYCQQYNRYWTFGQGTKVEIK
With B5, the Kd was found to be 0.0559 nM in test [1]; 0.0971 nM in test [2]; 0.234 nM in test [3]; 3.4 nM in test [4]; 0.0475 nM in test [5]; 2.84 nM in test [6]. Moreover, the T1/2 in test [1] is 2.53 h; in test [2], 1.5 h; in test [3], 1.03 h; in test [4], 1.45 h; in test [5] it was 8.9 h; in test [6], 0.0573 h.

B6: H1H724N (antibody, V domains shown)
VH: QVQLVESGGGVVQPGRSLRLSCAASGFTLSNYGMHWVRQAPGKGLEWVAVIWHDGSNTYYADSVKGRFTISRDNSKNTLYLQMNSLRAEDTAVYYCTREGLDFWSGYYPNWFDPWGQGTLVTVSS
VL: DIQMTQSPSSLSASVGDRVTITCRASQGIRNDLGWYQQKPGKAPKRLIYAASNLQGGVPSRFSGSGSGTEFTLTISSLQPEDFAAYYCLQHNIYPLTFGGGTKVEIK
In the case of B6, the Kd in test [1] was found to be 0.0233 nM; in test [2], 0.185 nM; in test [3] it was 0.115 nM; in test [4], 0.239 nM; in test [5] it was 0.0226 nM; in test [6], 2.4 nM. The T1/2 in test [1] was found to be 5.38 h; in test [2], 1.4 h; in test [3], 1.78 h; in test [4], 2.88 h; in test [5], 14.9 h; in test [6] it was 0.222 h.

B7: H1H732N (antibody, V domains shown)
VH: EVQLVESGGGLVRPGGSLRLSCAASGFTFTNAWMSWVRQAPGKGLEWIGQIKSKTDGGTIDYAAPVKGRFTVSRDDSENTLFLQMNSLKTEDTAVYYCAGNWNYVDFDYWGQGTLVTVSS
VL: DIQMTQSPSSLSASVGDRVTITCRASQDIRNDLGWYQQKPGKAPKRLIYAASSLQGGVPSRFSGSGSGTEFTLTISSLQPEDFATYYCLQHNSYPFTFGPGTKVDIK
Turning to B7, the Kd in test [1] is 0.132 nM; in test [2], 0.529 nM; in test [3], 0.386 nM; in test [4] it was 0.439 nM; in test [5] it was 0.202 nM; in test [6], 264 nM. For the same molecule, the T1/2 in test [1] amounted to 1.22 h; in test [2] it was 0.85 h; in test [3], 0.95 h; in test [4], 1.97 h; in test [5], 4.4 h; in test [6], 0.00367 h.

B8: H1H706P (antibody, V domains shown)
VH: QVQLVESGGGVVQPGRSLRLSCAASGFTFSSYGMHWVRQAPDKGLEWVAVKWDDGSNKYYADSVKGRFTISRDNSKNTLYLQMNSLRAEDTAVYYCAREGPYDFYSGYGAFDIWGQGTMVTVSS
VL: DIQMTQSPSSLSASVGDRVTITCRASQGISNYLAWFQQKPGKAPKSLIYAASSLQSGVPSKFSGSGSGTDFTLTISSLQPEDFATYYCQQYNSYPRTFGQGTKVEIK
Take B8: the Kd in test [1] was 0.0791 nM; in test [2], 0.357 nM; in test [3] it was 0.201 nM; in test [4], 0.164 nM; in test [5], 0.0274 nM. The T1/2 was 1.06 h in test [1]; 0.783 h in test [2]; 0.84 h in test [3]; 0.888 h in test [4]; 11 h in test [5]; 0.017 h in test [6].

B9: H1H707P (antibody, V domains shown)
VH: QVQLVESGGGVVQPGRSLRLSCAASGFTFSSYGMHWVRQAPDKGLEWVAVKWDDGSNKYYADSVKGRFTISRDNSKNTLYLQMNSLRAEDTAVYYCAREGPYDFYSGYGAFDIWGQGTMVTVSS
VL: not shown
Take B9: the equilibrium dissociation constant (Kd) came to 0.328 nM in test [2], 0.262 nM in test [3] and 0.283 nM in test [4]. Besides, the T1/2 in test [2] stood at 0.573 h; in test [3] it was 0.443 h; in test [4], 0.372 h.

B10: H1H743N (antibody, V domains shown)
VH: EVQLLESGGGLVQPGGSLRLSCAASGFTFRKYAMSWVRQAPGKGLEWVSVISVSGGNTYYADSVKGRFTISRDNSKNTLYLQLNSLRAEDTAVYYCAKDLTDIVLMVYVDYWGQGTLVTVSS
VL: DIQMTQSPSSVSASVGDRVTITCRASQDIDRWLAWYQQKPGKAPKLLIYAASSLQSGVPSRFSGSGSGTDFTLTISTLQPEDFATYYCQQANSLPFTFGGGTKVEIK
For B10, the Kd came out at 0.00971 nM in test [1]; 0.124 nM in test [2]; 0.0882 nM in test [3]; 0.0965 nM in test [4]; 0.00948 nM in test [5]; 2.35 nM in test [6]. Besides, the T1/2 in test [1] amounted to 18.6 h; in test [2], 3.88 h; in test [3], 4.23 h; in test [4], 13 h; in test [5], 65.5 h; in test [6], 0.55 h.

Broadly, the Kd is the free concentration of one partner at which half of the binding sites on the other are occupied at equilibrium, for simple one-to-one binding.
